Where a chain is given by its changes, count along the chain named. Names and notes keep the numbering of the source.

The target of assay [1] is T1, murine IL-11 (Invigate, e.g., lot #C210819-09) (mouse, UniProt P47873 22-199).
T1 construct: Bought protein; biotinylated where captured on streptavidin plates; also called mIL-11; mIL11
T1 sequence: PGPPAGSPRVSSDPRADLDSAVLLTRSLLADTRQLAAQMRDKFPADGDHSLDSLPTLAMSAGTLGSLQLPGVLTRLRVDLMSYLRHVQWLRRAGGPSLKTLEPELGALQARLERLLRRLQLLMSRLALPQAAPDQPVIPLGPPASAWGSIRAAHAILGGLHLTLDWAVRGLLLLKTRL
The assay can be described thus: SPR, Biacore 8K; antibody captured on anti-human IgG Fc chip, IL-11 analyte 0-50 nM, 1:1 fit. The method, then: (§1) Antibody binding affinity to hIL-11 (Invigate, Germany, e.g., lot #C121021-19) and mIL-11 (Invigate, Germany, e.g., lot #C210819-09) was detected using Biacore 8K. Each antibody was captured on an anti-human IgG Fc antibody immobilized CM5 sensor chip (GE). hIL-11 and mIL-11 at different concentrations (0, 5, 15.82 and 50 nM) in 1×HBS-EP+ (pH 7.4) (GE healthcare) were injected over the sensor chip at a flow rate of 30 μL/min for an association phase of 120 s, followed by 200 s dissociation phase. The chip was then regenerated by 10 mM Glycine, pH 1.5 after each binding cycle.
(§2) The sensorgrams of blank surface and buffer channel were subtracted from the test sensorgrams. The experimental data was fitted by 1:1 model using Langmiur analysis. Molecular weight of 19.3 kDa was used to calculate the molar concentration of human and mouse IL-11.

Assay [2] addresses T2, human IL-11 (Invigate, e.g., lot #C121021-19) (human, UniProt P20809 22-199).
T2 construct: Bought protein; also called hIL-11; hIL11
T2 sequence: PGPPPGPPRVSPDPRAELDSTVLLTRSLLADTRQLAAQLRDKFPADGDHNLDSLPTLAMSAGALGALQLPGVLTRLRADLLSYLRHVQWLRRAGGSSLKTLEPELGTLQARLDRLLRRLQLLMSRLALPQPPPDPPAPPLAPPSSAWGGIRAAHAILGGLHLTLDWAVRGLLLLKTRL
Described as above. The method, then:
as §1, §2

B1: TPP-31277 (antibody, human IgG4, V domains shown)
VH: EVQLLESGGGLVQPGGSLRLSCAASGFTFSHYDMNWLRQAPGKGLEWVGVISYDGSNKFYADFVKGRFTISRDNSKNTLYLQMNSLRAEDTAVYYCARTPGSHFDYWGQGTLVTVSS
VL: QSVLTQPPSASGTPGQRVTISCSGSSSNIGSNAVNWYQQLPGTAPKLLIYYDDLLPSGVPDRFSGSKSGTSASLAISGLRSEDEADYYCSAWDDSLNGVVFGGGTKLTVL
notes: consecutive numbering; also called VL-N31S
Take B1: the equilibrium dissociation constant (Kd) in assay [1] is 12 nM; in assay [2] it was 9.4 nM.

B2: TPP-31294 (antibody, human IgG4, V domains shown)
VH: B1 VH with G49A
VL: B1 VL with S31N
notes: consecutive numbering; also called VH-G49A
Take B2: the equilibrium dissociation constant (Kd) was 17 nM in assay [1] and 11 nM in assay [2].

B3: TPP-31307 (antibody, human IgG4, V domains shown)
VH: B1 VH with G55A
VL: B1 VL with S31N, G98A
notes: consecutive numbering; also called VH-G55A / VL-G98A
Turning to B3, the Kd is 28 nM in assay [1] and 31 nM in assay [2].

B4: TPP-31301 (antibody, human IgG4, V domains shown)
VH: B1 VH with D54E
VL: B1 VL with S31N, N97Q
notes: consecutive numbering; also called VH-D54E / VL-N97Q
As to B4, the Kd in assay [1] was determined as 2.9 nM; in assay [2], 3.6 nM.

B5: TPP-31295 (antibody, human IgG4, V domains shown)
VH: B1 VH with F59Y
VL: B1 VL with S31N
notes: consecutive numbering; also called VH-F59Y
B5: the Kd was 33 nM in assay [1] and 20 nM in assay [2].

B6: TPP-31283 (antibody, human IgG4, V domains shown)
VH: B1 VH
VL: B1 VL with S31N, L54Q
notes: consecutive numbering; also called VL-L54Q
As for B6, the Kd in assay [1] is 41 nM; in assay [2], 48 nM.

B7: TPP-31287 (antibody, human IgG4, V domains shown)
VH: B1 VH with L5V
VL: B1 VL with S31N
notes: consecutive numbering; also called VH-L5V
As for B7, the Kd in assay [1] was found to be 13 nM; in assay [2], 9.3 nM.

B8: TPP-31305 (antibody, human IgG4, V domains shown)
VH: B1 VH with G55A
VL: B1 VL with S31N, N97Q
notes: consecutive numbering; also called VH-G55A / VL-N97Q
On to B8, for which the results for the Kd in assay [1] and in assay [2] were 25 nM and 15 nM, respectively.

B9: TPP-31302 (antibody, human IgG4, V domains shown)
VH: B1 VH with D54E
VL: B1 VL with S31N, N97S
notes: consecutive numbering; also called VH-D54E/VL-N97S
As to B9, the figures for the Kd in assay [1] and in assay [2] were 3.2 nM and 3.8 nM, respectively.

B10: TPP-31292 (antibody, human IgG4, V domains shown)
VH: B1 VH with N35H
VL: B1 VL with S31N
notes: consecutive numbering; also called VH-N35H
For the molecule B10, the Kd is 19 nM in assay [1] and 11 nM in assay [2].

B11: TPP-31299 (antibody, human IgG4, V domains shown)
VH: B1 VH
VL: B1 VL with S31N, G98A
notes: consecutive numbering; also called VL-G98A
For B11, the Kd in assay [1] worked out at 16 nM; in assay [2] it was 18 nM.

B12: TPP-31309 (antibody, human IgG4, V domains shown)
VH: B1 VH with G55S
VL: B1 VL with S31N, N97Q
notes: consecutive numbering; also called VH-G55S / VL-N97Q
Take B12: the Kd in assay [1] was found to be 53 nM; in assay [2], 41 nM.

B13: TPP-31290 (antibody, human IgG4, V domains shown)
VH: B1 VH with H31S
VL: B1 VL with S31N
notes: consecutive numbering; also called VH-H31S
In the case of B13, the Kd in assay [1] is 300 nM; in assay [2] it was 290 nM.

B14: TPP-31308 (antibody, human IgG4, V domains shown)
VH: B1 VH with G55S
VL: B1 VL with S31N
notes: consecutive numbering; also called VH-G55S
Regarding B14, the Kd in assay [1] was found to be 47 nM; in assay [2] it was 40 nM.

B15: TPP-31297 (antibody, human IgG4, V domains shown)
VH: B1 VH
VL: B1 VL with S31N, N97Q
notes: consecutive numbering; also called VL-N97Q
With B15, the Kd in assay [1] is 14 nM; in assay [2] it was 8.7 nM.

B16: TPP-31303 (antibody, human IgG4, V domains shown)
VH: B1 VH with D54E
VL: B1 VL with S31N, G98A
notes: consecutive numbering; also called VH-D54E / VL-G98A
Consider B16, for which the results for the Kd in assay [1] and in assay [2] were 3.6 nM and 6.9 nM, respectively.

B17: TPP-31286 (antibody, human IgG4, V domains shown)
VH: B1 VH with E1Q
VL: B1 VL with S31N
notes: consecutive numbering; also called VH-E1Q
Consider B17, for which the Kd in assay [1] was determined as 12 nM; in assay [2], 9.1 nM.

B18: TPP-31281 (antibody, human IgG4, V domains shown)
VH: B1 VH
VL: B1 VL with S31N, D52N
notes: consecutive numbering; also called VL-D52N
Take B18: the Kd in assay [1] is 130 nM; in assay [2] it was 170 nM.

B19: TPP-31304 (antibody, human IgG4, V domains shown)
VH: B1 VH with G55A
VL: B1 VL with S31N
notes: consecutive numbering; also called VH-G55A
Turning to B19, the Kd in assay [1] worked out at 23 nM; in assay [2] it was 15 nM.

B20: TPP-31310 (antibody, human IgG4, V domains shown)
VH: B1 VH with G55S
VL: B1 VL with S31N, N97S
notes: consecutive numbering; also called VH-G55S / VL-N97S
On to B20, for which the Kd in assay [1] was found to be 43 nM; in assay [2] it was 40 nM.

B21: TPP-31284 (antibody, human IgG4, V domains shown)
VH: B1 VH
VL: B1 VL with S31N, L55R
notes: consecutive numbering; also called VL-L55R
Consider B21, for which the Kd in assay [1] turned out to be 15 nM; in assay [2] it was 11 nM.

B22: TPP-31293 (antibody, human IgG4, V domains shown)
VH: B1 VH with L37V
VL: B1 VL with S31N
notes: consecutive numbering; also called VH-L37V
As for B22, the Kd amounted to 12 nM in assay [1] and 4.8 nM in assay [2].

B23: TPP-31311 (antibody, human IgG4, V domains shown)
VH: B1 VH with G55S
VL: B1 VL with S31N, G98A
notes: consecutive numbering; also called VH-G55S / VL-G98A
For the molecule B23, the values for the Kd in assay [1] and in assay [2] were 58 nM and 87 nM, respectively.

B24: TPP-31298 (antibody, human IgG4, V domains shown)
VH: B1 VH
VL: B1 VL with S31N, N97S
notes: consecutive numbering; also called VL-N97S
On to B24, for which the Kd in assay [1] is 13 nM; in assay [2] it was 9.3 nM.

B25: TPP-31278 (antibody, human IgG4, V domains shown)
VH: B1 VH
VL: B1 VL with S31N, A33Y
notes: consecutive numbering; also called VL-A33Y
With B25, the figures for the Kd in assay [1] and in assay [2] were 1.2 nM and 2 nM, respectively.

B26: TPP-31296 (antibody, human IgG4, V domains shown)
VH: B1 VH with F63S
VL: B1 VL with S31N
notes: consecutive numbering; also called VH-F63S
Consider B26, for which the figures for the Kd in assay [1] and in assay [2] were 12 nM and 9.4 nM, respectively.

B27: TPP-31289 (antibody, human IgG4, V domains shown)
VH: B1 VH with G16R
VL: B1 VL with S31N
notes: consecutive numbering; also called VH-G16R
As to B27, the figures for the dissociation constant Kd in assay [1] and in assay [2] were 14 nM and 9.6 nM, respectively.

B28: TPP-31288 (antibody, human IgG4, V domains shown)
VH: B1 VH with L11V
VL: B1 VL with S31N
notes: consecutive numbering; also called VH-L11V
On to B28, for which the Kd in assay [1] turned out to be 15 nM; in assay [2], 11 nM.

B29: TPP-31306 (antibody, human IgG4, V domains shown)
VH: B1 VH with G55A
VL: B1 VL with S31N, N97S
notes: consecutive numbering; also called VH-G55A / VL-N97S
On to B29, for which the dissociation constant Kd was 23 nM in assay [1] and 15 nM in assay [2].

B30: TPP-31282 (antibody, human IgG4, V domains shown)
VH: B1 VH
VL: B1 VL with S31N, D53N
notes: consecutive numbering; also called VL-D53N
As for B30, the Kd was determined as 19 nM in assay [1] and 13 nM in assay [2].

B31: TPP-31285 (antibody, human IgG4, V domains shown)
VH: B1 VH
VL: B1 VL with S31N, S90A
notes: consecutive numbering; also called VL-S90A
On to B31, for which the figures for the Kd in assay [1] and in assay [2] were 18 nM and 7.6 nM, respectively.

B32: TPP-31300 (antibody, human IgG4, V domains shown)
VH: B1 VH with D54E
VL: B1 VL with S31N
notes: consecutive numbering; also called VH-D54E
In the case of B32, the Kd in assay [1] turned out to be 3 nM; in assay [2], 3.8 nM.

As usually defined, the Kd is the equilibrium constant for the complex coming apart. Read a high Kd as lower affinity.

These data come from patent US20240317847A1 (Bayer, published 2024).
